Assay results as given in PMC10017909, “Improving ethanol tolerance of ethyl carbamate hydrolase by diphasic high pressure molecular dynamic simulations” (AMB Express, 2023).

substrate: CCOC(N)=O; assay: purified protein; assay type: biochemical, Lysinibacillus fusiformis; conditions: free enzyme, EC 0-300 mM, activity assay at 37 °C, pH not stated

| Protein | Km [mM] |
| --- | --- |
| EC hydrolase (ethyl carbamate hydrolase) (Lysinibacillus fusiformis; H68A/K70R/S325N) (protein) MTTDLHLKSVEELAPLLASKSLSPVELTKAILDFAEESQPKINSYMAFYREEALARAKEVEQEILQGAYRGMYHGIPMALKDNLYFKDKITTMSSKIHKDFVSDYDATVVEKLRDAGVIFTGKLSMHEYAWGITNNNPHYGPVRNPWDLDKIPGGSSGGSGAAVAAGASVASLGTDTAGSIRIPSSACGIVGLKPTHGRVSKYGCYPLAWSLDHIGPMTKTVKDAAGLLEVIAGFDHQDPTCVNVPVDNYEKQLTGNIKDLVIGINEEYFFNNVDADVEKAVRASIQSLVDSGAKVEVVRIPSLQYAEWAELVTSLSEAAAIHHNDLQKRPQDFGDDIRLLFELGELPSAVDYLQAQQVRRQIKQEFTEIFNKVDVLISPTLPIVASTIGDDFAELNGQKVDLIDNIIRFTGPSNLTGLPALSVPCGFKGNLPIGLQIIGPAFKEGRILNVGYAVEQANPQRNRKPNIFANI | 28.2 ± 4.41 |
| EC hydrolase (ethyl carbamate hydrolase) (Lysinibacillus fusiformis; H68A) (protein) MTTDLHLKSVEELAPLLASKSLSPVELTKAILDFAEESQPKINSYMAFYREEALARAKEVEQEILQGAYKGMYHGIPMALKDNLYFKDKITTMSSKIHKDFVSDYDATVVEKLRDAGVIFTGKLSMHEYAWGITNNNPHYGPVRNPWDLDKIPGGSSGGSGAAVAAGASVASLGTDTAGSIRIPSSACGIVGLKPTHGRVSKYGCYPLAWSLDHIGPMTKTVKDAAGLLEVIAGFDHQDPTCVNVPVDNYEKQLTGNIKDLVIGINEEYFFNNVDADVEKAVRASIQSLVDSGAKVEVVRIPSLQYAEWAELVTSLSEAAAIHHSDLQKRPQDFGDDIRLLFELGELPSAVDYLQAQQVRRQIKQEFTEIFNKVDVLISPTLPIVASTIGDDFAELNGQKVDLIDNIIRFTGPSNLTGLPALSVPCGFKGNLPIGLQIIGPAFKEGRILNVGYAVEQANPQRNRKPNIFANI | 31.38 ± 5.61 |
| EC hydrolase (ethyl carbamate hydrolase) (Lysinibacillus fusiformis; H68A/S325N) (protein) MTTDLHLKSVEELAPLLASKSLSPVELTKAILDFAEESQPKINSYMAFYREEALARAKEVEQEILQGAYKGMYHGIPMALKDNLYFKDKITTMSSKIHKDFVSDYDATVVEKLRDAGVIFTGKLSMHEYAWGITNNNPHYGPVRNPWDLDKIPGGSSGGSGAAVAAGASVASLGTDTAGSIRIPSSACGIVGLKPTHGRVSKYGCYPLAWSLDHIGPMTKTVKDAAGLLEVIAGFDHQDPTCVNVPVDNYEKQLTGNIKDLVIGINEEYFFNNVDADVEKAVRASIQSLVDSGAKVEVVRIPSLQYAEWAELVTSLSEAAAIHHNDLQKRPQDFGDDIRLLFELGELPSAVDYLQAQQVRRQIKQEFTEIFNKVDVLISPTLPIVASTIGDDFAELNGQKVDLIDNIIRFTGPSNLTGLPALSVPCGFKGNLPIGLQIIGPAFKEGRILNVGYAVEQANPQRNRKPNIFANI | 33.27 ± 2.31 |
| EC hydrolase (ethyl carbamate hydrolase) (Lysinibacillus fusiformis; S325N) (protein) MTTDLHLKSVEELAPLLASKSLSPVELTKAILDFAEESQPKINSYMAFYREEALARAKEVEQEILQGHYKGMYHGIPMALKDNLYFKDKITTMSSKIHKDFVSDYDATVVEKLRDAGVIFTGKLSMHEYAWGITNNNPHYGPVRNPWDLDKIPGGSSGGSGAAVAAGASVASLGTDTAGSIRIPSSACGIVGLKPTHGRVSKYGCYPLAWSLDHIGPMTKTVKDAAGLLEVIAGFDHQDPTCVNVPVDNYEKQLTGNIKDLVIGINEEYFFNNVDADVEKAVRASIQSLVDSGAKVEVVRIPSLQYAEWAELVTSLSEAAAIHHNDLQKRPQDFGDDIRLLFELGELPSAVDYLQAQQVRRQIKQEFTEIFNKVDVLISPTLPIVASTIGDDFAELNGQKVDLIDNIIRFTGPSNLTGLPALSVPCGFKGNLPIGLQIIGPAFKEGRILNVGYAVEQANPQRNRKPNIFANI | 45.52 ± 9.41 |
| EC hydrolase (ethyl carbamate hydrolase) (Lysinibacillus fusiformis) (protein) MTTDLHLKSVEELAPLLASKSLSPVELTKAILDFAEESQPKINSYMAFYREEALARAKEVEQEILQGHYKGMYHGIPMALKDNLYFKDKITTMSSKIHKDFVSDYDATVVEKLRDAGVIFTGKLSMHEYAWGITNNNPHYGPVRNPWDLDKIPGGSSGGSGAAVAAGASVASLGTDTAGSIRIPSSACGIVGLKPTHGRVSKYGCYPLAWSLDHIGPMTKTVKDAAGLLEVIAGFDHQDPTCVNVPVDNYEKQLTGNIKDLVIGINEEYFFNNVDADVEKAVRASIQSLVDSGAKVEVVRIPSLQYAEWAELVTSLSEAAAIHHSDLQKRPQDFGDDIRLLFELGELPSAVDYLQAQQVRRQIKQEFTEIFNKVDVLISPTLPIVASTIGDDFAELNGQKVDLIDNIIRFTGPSNLTGLPALSVPCGFKGNLPIGLQIIGPAFKEGRILNVGYAVEQANPQRNRKPNIFANI | 37.67 ± 3.55 |
| EC hydrolase (ethyl carbamate hydrolase) (Lysinibacillus fusiformis; K70R/S325N) (protein) MTTDLHLKSVEELAPLLASKSLSPVELTKAILDFAEESQPKINSYMAFYREEALARAKEVEQEILQGHYRGMYHGIPMALKDNLYFKDKITTMSSKIHKDFVSDYDATVVEKLRDAGVIFTGKLSMHEYAWGITNNNPHYGPVRNPWDLDKIPGGSSGGSGAAVAAGASVASLGTDTAGSIRIPSSACGIVGLKPTHGRVSKYGCYPLAWSLDHIGPMTKTVKDAAGLLEVIAGFDHQDPTCVNVPVDNYEKQLTGNIKDLVIGINEEYFFNNVDADVEKAVRASIQSLVDSGAKVEVVRIPSLQYAEWAELVTSLSEAAAIHHNDLQKRPQDFGDDIRLLFELGELPSAVDYLQAQQVRRQIKQEFTEIFNKVDVLISPTLPIVASTIGDDFAELNGQKVDLIDNIIRFTGPSNLTGLPALSVPCGFKGNLPIGLQIIGPAFKEGRILNVGYAVEQANPQRNRKPNIFANI | 40.82 ± 3.56 |
| EC hydrolase (ethyl carbamate hydrolase) (Lysinibacillus fusiformis; K70R) (protein) MTTDLHLKSVEELAPLLASKSLSPVELTKAILDFAEESQPKINSYMAFYREEALARAKEVEQEILQGHYRGMYHGIPMALKDNLYFKDKITTMSSKIHKDFVSDYDATVVEKLRDAGVIFTGKLSMHEYAWGITNNNPHYGPVRNPWDLDKIPGGSSGGSGAAVAAGASVASLGTDTAGSIRIPSSACGIVGLKPTHGRVSKYGCYPLAWSLDHIGPMTKTVKDAAGLLEVIAGFDHQDPTCVNVPVDNYEKQLTGNIKDLVIGINEEYFFNNVDADVEKAVRASIQSLVDSGAKVEVVRIPSLQYAEWAELVTSLSEAAAIHHSDLQKRPQDFGDDIRLLFELGELPSAVDYLQAQQVRRQIKQEFTEIFNKVDVLISPTLPIVASTIGDDFAELNGQKVDLIDNIIRFTGPSNLTGLPALSVPCGFKGNLPIGLQIIGPAFKEGRILNVGYAVEQANPQRNRKPNIFANI | 33.38 ± 5.67 |
| EC hydrolase (ethyl carbamate hydrolase) (Lysinibacillus fusiformis; A178L) (protein) MTTDLHLKSVEELAPLLASKSLSPVELTKAILDFAEESQPKINSYMAFYREEALARAKEVEQEILQGHYKGMYHGIPMALKDNLYFKDKITTMSSKIHKDFVSDYDATVVEKLRDAGVIFTGKLSMHEYAWGITNNNPHYGPVRNPWDLDKIPGGSSGGSGAAVAAGASVASLGTDTLGSIRIPSSACGIVGLKPTHGRVSKYGCYPLAWSLDHIGPMTKTVKDAAGLLEVIAGFDHQDPTCVNVPVDNYEKQLTGNIKDLVIGINEEYFFNNVDADVEKAVRASIQSLVDSGAKVEVVRIPSLQYAEWAELVTSLSEAAAIHHSDLQKRPQDFGDDIRLLFELGELPSAVDYLQAQQVRRQIKQEFTEIFNKVDVLISPTLPIVASTIGDDFAELNGQKVDLIDNIIRFTGPSNLTGLPALSVPCGFKGNLPIGLQIIGPAFKEGRILNVGYAVEQANPQRNRKPNIFANI | 96.78 ± 6.09 |
